# Measurements taken from patent publication US20110262445A1 (CEPHALON AUSTRALIA, published 2011).
# Where two headings read alike, the source gives them in different places.
# T1: human IL-12 (human, UniProt P29460 23-328; P29459 23-219)
# T1 construct: Recombinant (Peprotech); FLAG-tagged IL-12 in the flow cytometry assays, biotinylated in the IL-12Rβ2 assay; also called hIL-12
# T1 sequence 1: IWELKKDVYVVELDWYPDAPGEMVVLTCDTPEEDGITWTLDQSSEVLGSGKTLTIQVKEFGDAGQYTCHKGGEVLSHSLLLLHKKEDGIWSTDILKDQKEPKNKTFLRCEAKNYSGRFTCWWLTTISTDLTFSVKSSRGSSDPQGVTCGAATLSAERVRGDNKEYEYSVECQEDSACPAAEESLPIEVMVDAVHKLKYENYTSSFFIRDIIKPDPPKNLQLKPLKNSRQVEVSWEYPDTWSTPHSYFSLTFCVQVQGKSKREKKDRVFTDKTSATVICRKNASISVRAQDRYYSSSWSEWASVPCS
# T1 sequence 2: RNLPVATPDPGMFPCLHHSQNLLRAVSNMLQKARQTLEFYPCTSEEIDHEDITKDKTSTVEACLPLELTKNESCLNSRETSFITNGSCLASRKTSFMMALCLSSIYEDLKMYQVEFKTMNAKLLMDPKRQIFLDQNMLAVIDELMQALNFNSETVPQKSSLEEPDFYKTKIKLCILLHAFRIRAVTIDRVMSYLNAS
# T2: human IL-23 (human, UniProt P29460 23-328; Q9NPF7 20-189)
# T2 construct: Recombinant (Ebioscience); HIS-tagged in flow cytometry, biotinylated in some assays; also called hIL-23; rhIL-23
# T2 sequence 1: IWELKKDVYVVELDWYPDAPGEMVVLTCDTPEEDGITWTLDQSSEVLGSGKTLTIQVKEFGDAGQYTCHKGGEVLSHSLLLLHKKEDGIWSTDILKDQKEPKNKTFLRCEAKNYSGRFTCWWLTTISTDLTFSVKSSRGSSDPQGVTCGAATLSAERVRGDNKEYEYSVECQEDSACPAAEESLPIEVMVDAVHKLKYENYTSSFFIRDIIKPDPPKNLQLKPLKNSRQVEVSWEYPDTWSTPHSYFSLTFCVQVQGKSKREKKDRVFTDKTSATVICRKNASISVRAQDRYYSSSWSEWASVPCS
# T2 sequence 2: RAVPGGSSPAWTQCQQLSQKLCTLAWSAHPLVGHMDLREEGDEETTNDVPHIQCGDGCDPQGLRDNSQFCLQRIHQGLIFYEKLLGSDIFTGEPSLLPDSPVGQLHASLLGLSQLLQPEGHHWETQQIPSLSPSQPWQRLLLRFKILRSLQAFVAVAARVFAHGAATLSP
# Experiments:
# [1] = molecular target: T1, human IL-12; experiment: ELISA, coated IL-12
# Summary of the method: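 Binding values are absorbance readings. After cytokine (1 μg/mL, carbonate buffer pH 9.6) was coated onto Maxisorp plates overnight at 4° C and the plates were blocked with 1% BSA in PBS, antibody titrations were bound for 1 hour at 25° C and detected with HRP-linked goat anti-human IgG or anti-murine immunoglobulin (1:2000). Color from TMB, stopped with 1M HCl, was read at 450 nm with 620 nm as reference.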
# [2] = molecular target: T2, human IL-23; experiment: ELISA, coated IL-23
# Experimental: This cysteine at the start of CDR3 could be oxidized, causing heterogeneity in any resulting antibody product. It could also form complexes by disulphide bond formation. Therefore, each of the other 18 (the exceptions being the original Cys and Trp) amino acids was substituted in this position using gene synthesis, and the antibodies were expressed transiently (Antibodies 5, 6, 7, 8, 9, 10, 11, 12, 13, 14, 15, 16, 17, 18, 19, 20, 21, 22). An ELISA was performed on these antibodies (FIG. 9). Some of the antibodies retained binding activity for both IL-12 and IL-23, others only for one cytokine or the other, while others minimally bound to either cytokine.
# (§1) IL-12 (Peprotech), IL-23 (Ebioscience™), IL-12p40 (Ebioscience™) or IL-12p80 (Peprotech), was diluted to 1 μg/mL in carbonate coating buffer ([…] pH 9.6) and coated onto a 96 well plate (Nunc™, Maxisorp™) overnight at 4° C. The plate was then washed three times with wash buffer (0.01M PBS pH 7.2, 0.05% Tween-20) and then three times with 0.01M PBS pH 7.2. The wells were then blocked by adding 200 μl of blocking buffer (1% w/v BSA in 0.01 M PBS pH 7.2) to each well and incubating the plate at 25° C. for 1 hour. The antibody was diluted in antibody diluent (1% w/v BSA, 0.05% Tween-20 in 0.01M PBS pH 7.2) sufficient to generate a titration curve. The wells were incubated with the antibody for 1 hour at 25° C. The plate was then washed as previously described. Goat anti-human immunoglobulin G (H+L) antibody HRP conjugate (Zymed®) at 1:2000 in antibody diluent was used to detect bound primary antibody. Goat anti-murine immunoglobulin antibody HRP conjugate (Dako) at 1:2000 in antibody diluent was used to detect bound murine antibody. After incubation at 25° C. for 1 hour the plate was washed again as previously described. TMB substrate solution (Zymed®) was added to each well and the colour allowed to develop; the reaction was terminated by adding 1M HCl to the wells. The absorbance of each well was determined at 450 nm (ref. 620 nm).
# [3] = molecular target: T2, human IL-23; experiment: ELISA, coated IL-23; remark: listed apart in the source
# Experimental: as §1
# [4] = molecular target: T1, human IL-12; experiment: ELISA, coated IL-12; remark: listed apart in the source
# Experimental: as §1
binding result [1],binding result [2],binding result [3],binding result [4],Binder
binds,binds,–,–,"Antibody 5 (antibody, human IgG1, kappa, V domains shown) VH: EVQLQQSGADLVRSGASIKLSCTASGFNIKDYYMHWVKQRPEQGLEWIGWIDPENGDTEYAPKFQGKATMTADTSSNTAYLQLSSLTSEDTAVYYCNAAKELRYFDVWGAGTTVTVSS VL: DIVLTQSPATLSVTPGDSVSLSCRASQSISINLHWYQQKSHESPRLLIKFASQSISGIPSRFSGYGSGTDFTLSINSVETEDFGRYFCQQSNSWPLTFGAGTKLELKR"
binds,binds,–,–,"Antibody 8 (antibody, human IgG1, kappa, V domains shown) VH: EVQLQQSGADLVRSGASIKLSCTASGFNIKDYYMHWVKQRPEQGLEWIGWIDPENGDTEYAPKFQGKATMTADTSSNTAYLQLSSLTSEDTAVYYCNADKELRYFDVWGAGTTVTVSS VL: DIVLTQSPATLSVTPGDSVSLSCRASQSISINLHWYQQKSHESPRLLIKFASQSISGIPSRFSGYGSGTDFTLSINSVETEDFGRYFCQQSNSWPLTFGAGTKLELKR"
binds,binds,–,–,"Antibody 17 (antibody, human IgG1, kappa, V domains shown) VH: EVQLQQSGADLVRSGASIKLSCTASGFNIKDYYMHWVKQRPEQGLEWIGWIDPENGDTEYAPKFQGKATMTADTSSNTAYLQLSSLTSEDTAVYYCNAFKELRYFDVWGAGTTVTVSS VL: DIVLTQSPATLSVTPGDSVSLSCRASQSISINLHWYQQKSHESPRLLIKFASQSISGIPSRFSGYGSGTDFTLSINSVETEDFGRYFCQQSNSWPLTFGAGTKLELKR"
binds,binds,–,–,"Antibody 18 (antibody, human IgG1, kappa, V domains shown) VH: EVQLQQSGADLVRSGASIKLSCTASGFNIKDYYMHWVKQRPEQGLEWIGWIDPENGDTEYAPKFQGKATMTADTSSNTAYLQLSSLTSEDTAVYYCNAPKELRYFDVWGAGTTVTVSS VL: DIVLTQSPATLSVTPGDSVSLSCRASQSISINLHWYQQKSHESPRLLIKFASQSISGIPSRFSGYGSGTDFTLSINSVETEDFGRYFCQQSNSWPLTFGAGTKLELKR"
binds,binds,–,–,"Antibody 19 (antibody, human IgG1, kappa, V domains shown) VH: EVQLQQSGADLVRSGASIKLSCTASGFNIKDYYMHWVKQRPEQGLEWIGWIDPENGDTEYAPKFQGKATMTADTSSNTAYLQLSSLTSEDTAVYYCNASKELRYFDVWGAGTTVTVSS VL: DIVLTQSPATLSVTPGDSVSLSCRASQSISINLHWYQQKSHESPRLLIKFASQSISGIPSRFSGYGSGTDFTLSINSVETEDFGRYFCQQSNSWPLTFGAGTKLELKR"
binds,binds,–,–,"Antibody 12 (antibody, human IgG1, kappa, V domains shown) VH: EVQLQQSGADLVRSGASIKLSCTASGFNIKDYYMHWVKQRPEQGLEWIGWIDPENGDTEYAPKFQGKATMTADTSSNTAYLQLSSLTSEDTAVYYCNAHKELRYFDVWGAGTTVTVSS VL: DIVLTQSPATLSVTPGDSVSLSCRASQSISINLHWYQQKSHESPRLLIKFASQSISGIPSRFSGYGSGTDFTLSINSVETEDFGRYFCQQSNSWPLTFGAGTKLELKR"
binds,binds,–,–,"Antibody 13 (antibody, human IgG1, kappa, V domains shown) VH: EVQLQQSGADLVRSGASIKLSCTASGFNIKDYYMHWVKQRPEQGLEWIGWIDPENGDTEYAPKFQGKATMTADTSSNTAYLQLSSLTSEDTAVYYCNAIKELRYFDVWGAGTTVTVSS VL: DIVLTQSPATLSVTPGDSVSLSCRASQSISINLHWYQQKSHESPRLLIKFASQSISGIPSRFSGYGSGTDFTLSINSVETEDFGRYFCQQSNSWPLTFGAGTKLELKR"
binds,binds,–,–,"Antibody 10 (antibody, human IgG1, kappa, V domains shown) VH: EVQLQQSGADLVRSGASIKLSCTASGFNIKDYYMHWVKQRPEQGLEWIGWIDPENGDTEYAPKFQGKATMTADTSSNTAYLQLSSLTSEDTAVYYCNAQKELRYFDVWGAGTTVTVSS VL: DIVLTQSPATLSVTPGDSVSLSCRASQSISINLHWYQQKSHESPRLLIKFASQSISGIPSRFSGYGSGTDFTLSINSVETEDFGRYFCQQSNSWPLTFGAGTKLELKR"
binds,binds,–,–,"Antibody 20 (antibody, human IgG1, kappa, V domains shown) VH: EVQLQQSGADLVRSGASIKLSCTASGFNIKDYYMHWVKQRPEQGLEWIGWIDPENGDTEYAPKFQGKATMTADTSSNTAYLQLSSLTSEDTAVYYCNATKELRYFDVWGAGTTVTVSS VL: DIVLTQSPATLSVTPGDSVSLSCRASQSISINLHWYQQKSHESPRLLIKFASQSISGIPSRFSGYGSGTDFTLSINSVETEDFGRYFCQQSNSWPLTFGAGTKLELKR"
binds,binds,–,–,"Antibody 9 (antibody, human IgG1, kappa, V domains shown) VH: EVQLQQSGADLVRSGASIKLSCTASGFNIKDYYMHWVKQRPEQGLEWIGWIDPENGDTEYAPKFQGKATMTADTSSNTAYLQLSSLTSEDTAVYYCNAEKELRYFDVWGAGTTVTVSS VL: DIVLTQSPATLSVTPGDSVSLSCRASQSISINLHWYQQKSHESPRLLIKFASQSISGIPSRFSGYGSGTDFTLSINSVETEDFGRYFCQQSNSWPLTFGAGTKLELKR"
binds,binds,–,–,"Antibody 11 (antibody, human IgG1, kappa, V domains shown) VH: EVQLQQSGADLVRSGASIKLSCTASGFNIKDYYMHWVKQRPEQGLEWIGWIDPENGDTEYAPKFQGKATMTADTSSNTAYLQLSSLTSEDTAVYYCNAGKELRYFDVWGAGTTVTVSS VL: DIVLTQSPATLSVTPGDSVSLSCRASQSISINLHWYQQKSHESPRLLIKFASQSISGIPSRFSGYGSGTDFTLSINSVETEDFGRYFCQQSNSWPLTFGAGTKLELKR"
–,–,binds,binds,"Antibody 191 (antibody, human IgG1, kappa, V domains shown) VH: QVQLVQSGAEVKKPGASVKVSCKASGYTFTDYYLHWVRQAPGQGLEWMGWIDPENGDTEYAPKFQGRVTMTTDTSTSTAYMELRSLRSDDTAVYYCAANKELRYFDVWGQGTMVTVSS VL: DIQMTQSPSSVSASVGDRVTITCRASQSISINLHWYQQKPGKAPKLLIYFASQSISGVPSRFSGSGSGTDFSLTINSLQTEDFATYYCQQSNSFPLTFGGGTKVEIKR"
–,–,binds,binds,"Antibody 196 (antibody, human IgG1, kappa, V domains shown) VH: QVQLVQSGAEVEKPGASVKVSCKASGYTFTDYYLHWVRQAPGQGLEWMGWIDPENGDTEYAPKFQGGVTMTTDTSTSTAYMELRSLRSDDTAVYYCAANKELRYFDVWGQGTMVTVSS VL: DIQMTQSPSSVSASVGDRVTITCRASQSISINLHWYQQKPGKAPKLLIYFASQSISGVPSRFSGSGSGTDFSLTINSLQTEDFATYYCQQSNSFPLTFGGGTKVEIKR"
–,–,binds,binds,"Antibody 197 (antibody, human IgG1, kappa, V domains shown) VH: QVQLVQSGAEVKKPGASVKVSCKASGYTFTDYYLHWVRQAPGRGLEWMGWIDPENGDTEYAPKFQGRVTMTTDTSTSTAYMELRSLRSDDTAVYYCAANKELRYFDVWGQGTMVTVSS VL: DIQMTQSPSSVSASVGDRVTITCRASQSISINLHWYQQKPGKAPKLLIYFASQSISGVPSRFSGSGSGTDFSLTINSLQTEDFATYYCQQSNSFPLTFGGGTKVEIKR"
